These results are taken from US20230372484A1 (VOR BIOPHARMA, published 2023).

The assay has as its target CD33 (UniProt P20138 18-364, limits assumed). Nature of the assay: cell-based or functional assay.

CD33, sequence (P20138 18-364 limits assumed): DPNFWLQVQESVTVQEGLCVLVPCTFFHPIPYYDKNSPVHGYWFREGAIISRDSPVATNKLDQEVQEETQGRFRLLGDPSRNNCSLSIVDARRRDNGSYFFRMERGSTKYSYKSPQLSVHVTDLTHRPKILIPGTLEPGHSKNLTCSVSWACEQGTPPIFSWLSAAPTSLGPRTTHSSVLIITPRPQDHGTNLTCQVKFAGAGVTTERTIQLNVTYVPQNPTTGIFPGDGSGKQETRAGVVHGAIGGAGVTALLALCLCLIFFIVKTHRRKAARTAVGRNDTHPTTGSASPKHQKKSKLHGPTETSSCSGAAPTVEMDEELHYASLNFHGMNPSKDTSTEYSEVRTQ

B1: CD33-CAR7 (other)
chain: MELGLSWVVLAALLQGVQAQVQLVQPGGSLRLFCVASEEFFSIYAMGWYRQAPGKQHEMVARFTRDGKITYADSAKGRFTITRDAKNTLNLQMNGLIPEDTAVYYCNINHYWGQGTQVTVSSAAATTTPAPRPPTPAPTIASQPLSLRPEACRPAAGGAVHTRGLDFACDIYIWAPLAGTCGVLLLSLVITLYCKRGRKKLLYIFKQPFMRPVQTTQEEDGCSCRFPEEEEGGCELRVKFSRSADAPAYQQGQNQLYNELNLGRREEYDVLDKRRGRDPEMGGKPRRKNPQEGLYNELQKDKMAEAYSEIGMKGERRRGKGHDGLYQGLSTATKDTYDALHMQALPPR
As for B1, the “Ratio (NFAT-inducible reporter with wild-type MOLM-13 relative to MOLM-13 CD33KO)” value came out at 1.98 ratio and the “Testing FP2 Expression (CD33+)” value is 17.6 % of constitutive-fluorescence-positive cells.

B2: CD33-CAR3 (other)
chain: QVQLVQSGAEVKKPGSSVKVSCKASGYTFTDYNMHWVRQAPGQGLEWIGYIYPYNGGTGYNQKFKSKATITADESTNTAYMELSSLRSEDTAVYYCARGRPAMDYWGQGTLVTVSSGGGGSGGGGSGGGGSDIQMTQSPSSLSASVGDRVTITCRASESVDNYGISFMNWFQQKPGKAPKLLIYAASNQGSGVPSRFSGSGSGTDFTLTISSLQPDDFATYYCQQSKEVPWTFGQGTKVEIKSGAAAIEVMYPPPYLDNEKSNGTIIHVKGKHLCPSPLFPGPSKPFWVLVVVGGVLACYSLLVTVAFIIFWVRSKRSRLLHSDYMNMTPRRPGPTRKHYQPYAPPRDFAAYRSRVKFSRSADAPAYQQGQNQLYNELNLGRREEYDVLDKRRGRDPEMGGKPRRKNPQEGLYNELQKDKMAEAYSEIGMKGERRRGKGHDGLYQGLSTATKDTYDALHMQALPPRGS
For the molecule B2, the “Ratio (NFAT-inducible reporter with wild-type MOLM-13 relative to MOLM-13 CD33KO)” value is 1.44 ratio and the “Testing FP2 Expression (CD33+)” value is 3.9 % of constitutive-fluorescence-positive cells.

B3: CD33-CAR4 (other)
chain: EVQLVQSGAEVKKPGSSVKVSCKASGYTITDSNIHWVRQAPGQSLEWIGYIYPYNGGTDYNQKFKNRATLTVDNPTNTAYMELSSLRSEDTAFYYCVNGNPWLAYWGQGTLVTVSSGGGGSGGGGSGGGGSDIQLTQSPSTLSASVGDRVTITCRASESLDNYGIRFLTWFQQKPGKAPKLLMYAASNQGSGVPSRFSGSGSGTEFTLTISSLQPDDFATYYCQQTKEVPWSFGQGTKVEVKRTSSGAAAIEVMYPPPYLDNEKSNGTIIHVKGKHLCPSPLFPGPSKPFWVLVVVGGVLACYSLLVTVAFIIFWVRSKRSRLLHSDYMNMTPRRPGPTRKHYQPYAPPRDFAAYRSRVKFSRSADAPAYQQGQNQLYNELNLGRREEYDVLDKRRGRDPEMGGKPRRKNPQEGLYNELQKDKMAEAYSEIGMKGERRRGKGHDGLYQGLSTATKDTYDALHMQALPPRGS
With B3, the “Ratio (NFAT-inducible reporter with wild-type MOLM-13 relative to MOLM-13 CD33KO)” value turned out to be 2.41 ratio and the “Testing FP2 Expression (CD33+)” value was 4.14 % of constitutive-fluorescence-positive cells.

B4: CD33-CAR5 (other)
chain: QVKLEESGGGSVQAGESLRLSCTASGITFRDYDIDWYRQAPGKEREWLATITPSGTTHYPDSVKGRATISRDSAKNTVYLQMNSLKPEDTARYECNTLAYWGSGTQVTVSSAAATTTPAPRPPTPAPTIASQPLSLRPEACRPAAGGAVHTRGLDFACDIYIWAPLAGTCGVLLLSLVITLYCKRGRKKLLYIFKQPFMRPVQTTQEEDGCSCRFPEEEEGGCELRVKFSRSADAPAYQQGQNQLYNELNLGRREEYDVLDKRRGRDPEMGGKPRRKNPQEGLYNELQKDKMAEAYSEIGMKGERRRGKGHDGLYQGLSTATKDTYDALHMQALPPR
Turning to B4, the “Ratio (NFAT-inducible reporter with wild-type MOLM-13 relative to MOLM-13 CD33KO)” value is 8.5 ratio and the “Testing FP2 Expression (CD33+)” value is 28.2 % of constitutive-fluorescence-positive cells.

B5: CD33-CAR6 (other)
chain: QVQLVETGGGLVRAGGSLRLSCAASGRTADIYNIGWFRQAPGKEREFVAAITWIGRTPYYADAVKGRFAFSTDSAKNTVSLQMDNLKPEDTGVYYCNAAHYLEGNTDYYWGQGTQVTVSSAAATTTPAPRPPTPAPTIASQPLSLRPEACRPAAGGAVHTRGLDFACDIYIWAPLAGTCGVLLLSLVITLYCKRGRKKLLYIFKQPFMRPVQTTQEEDGCSCRFPEEEEGGCELRVKFSRSADAPAYQQGQNQLYNELNLGRREEYDVLDKRRGRDPEMGGKPRRKNPQEGLYNELQKDKMAEAYSEIGMKGERRRGKGHDGLYQGLSTATKDTYDALHMQALPPR
For B5, the “Ratio (NFAT-inducible reporter with wild-type MOLM-13 relative to MOLM-13 CD33KO)” value stood at 3.6 ratio and the “Testing FP2 Expression (CD33+)” value was 22.9 % of constitutive-fluorescence-positive cells.
